The record followed here is paper PMC12182893.

The target of this data set is Pseudotyped lentivirus displaying Omicron BA.5 S protein (PV) (SARS-CoV-2 Omicron BA.5) (UniProt P0DTC2). Description: dot blot (filter binding).

Regarding “TTACGTCAAGGTGTCACTCCTGTGGGTGGAATGGGGAAGGGAGTGTTTTTTTTTTCGGAGATGTGTGTGTGAAACAGTGGGAAGCATCTCTTTGGCGTG [DRDA10]”, the Kd worked out at 0.0043 pM.

Regarding “TTACGTCAAGGTGTCACTCCTGTGGGTGGAATGGGGAAGGGAGTGTTTTTTTTTGTGAGATGTGTGGTGTGGAATGGGGAAGCATCTCTTTGGCGTG [DRDA8]”, the equilibrium dissociation constant (Kd) was determined as 0.0028 pM.

By Kd is commonly meant the free concentration of one partner at which half of the binding sites on the other are occupied at equilibrium, for simple one-to-one binding. A higher Kd goes with weaker binding.
